B1: ABT03 (antibody, V domains shown)
VH: QVQLQQSGGGLVQPGGSLRLSCAASGFTFSNYAMTWVRQAPGKGLEWVSSISVGGSDTYYADSVKGRFTVSRDNSKNTLLLQMNSLRAEDTAVYYCAKVRTKYCSSLSCFAGFDSWGQGTRVTVSS
VL: DVVMTQSPSSLSASVGDRVTITCRASQSISSYLHWYQQKPGKAPTLLISDASSSQSGVPSRFSGSRFGTDFTLTISSLQPEDFATYYCQQSYSTRALTFGGGTKVEIK
B2: ABT01 (antibody, V domains shown)
VH: QVQLQQSGGGLVQPGGSLRLSCAASGFTFKYDYMYWIRQAPGKGLEWVATISDGGSYTYYSDSVEGRFTTSRDNSKNTLYLQMNSLRAEDTAIYYCSRYRYDDAMDYWGQGTLVTVSS
VL: EIVLTQSPATLSLSPGERATISCRASESVDSYGHSFMQWYQQKPGQAPRLLIYRASNLEPGIPARFSGSGSGTDFTLTISSLEPEDFAVYYCQQGNEVPFTFGQGTKVEIK
B3: ABT02 (antibody, V domains shown)
VH: QVQLVQSGGGVVHPGRSLKLSCAGSGFTFSDYDMHWVRQAPGKGLEWVAVMWFDGTEKYSAESVKGRFTISRDNSKNTLFLQMNSLRADDTAVYYCAREPDWLLWGDRGALDVWGQGTTVTVSS
VL: DIVMTQSPSTLSASVGDRVTITCWASQSISSRLAWYQQKPGKAPKLLMYEATSLGSGVPSRFSGSGSGTEFTLTISSLQPDDFAAYYCQHYDTYPYTFGQGTKLEIK

Legend:
Assay in all cases: ELISA on plate-coated toxin domain
[1] = biological target: BoNT/A heavy-chain C-terminus (HCC) domain (UniProt P0DPI0 1093-1296)
[2] = biological target: BoNT/A heavy-chain N-terminus (HCN) domain (UniProt P0DPI0 871-1092)
[3] = biological target: BoNT/A light-chain heavy-chain N-terminus (LCHN) domain (UniProt P0DPI0 1-870)
Sequence of BoNT/A light-chain heavy-chain N-terminus (LCHN) domain (P0DPI0 1-870 limits assumed): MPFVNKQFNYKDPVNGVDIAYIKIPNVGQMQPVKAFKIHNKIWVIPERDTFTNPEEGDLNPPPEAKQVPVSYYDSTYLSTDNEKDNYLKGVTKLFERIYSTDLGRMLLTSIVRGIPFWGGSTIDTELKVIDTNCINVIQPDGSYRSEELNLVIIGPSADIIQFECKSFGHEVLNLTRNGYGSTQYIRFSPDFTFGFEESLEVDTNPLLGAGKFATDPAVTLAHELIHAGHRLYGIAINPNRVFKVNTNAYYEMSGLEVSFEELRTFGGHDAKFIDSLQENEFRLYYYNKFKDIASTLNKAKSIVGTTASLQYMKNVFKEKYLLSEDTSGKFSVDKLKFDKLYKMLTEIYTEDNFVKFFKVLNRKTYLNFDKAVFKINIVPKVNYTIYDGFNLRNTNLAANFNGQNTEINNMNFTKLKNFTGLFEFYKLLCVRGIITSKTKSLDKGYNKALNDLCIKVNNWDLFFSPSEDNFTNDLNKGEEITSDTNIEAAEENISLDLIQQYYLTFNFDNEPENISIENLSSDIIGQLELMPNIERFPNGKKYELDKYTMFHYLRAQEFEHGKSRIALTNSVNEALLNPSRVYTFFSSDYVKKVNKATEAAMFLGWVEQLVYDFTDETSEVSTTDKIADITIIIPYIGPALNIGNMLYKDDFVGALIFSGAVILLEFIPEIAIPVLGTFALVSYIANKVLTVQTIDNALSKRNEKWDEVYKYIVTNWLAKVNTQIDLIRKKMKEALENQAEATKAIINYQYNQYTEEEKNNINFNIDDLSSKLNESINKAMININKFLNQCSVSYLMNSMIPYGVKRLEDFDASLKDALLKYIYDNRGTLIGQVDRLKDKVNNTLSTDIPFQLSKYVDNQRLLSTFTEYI

Sequence of BoNT/A heavy-chain C-terminus (HCC) domain (P0DPI0 1093-1296 limits assumed): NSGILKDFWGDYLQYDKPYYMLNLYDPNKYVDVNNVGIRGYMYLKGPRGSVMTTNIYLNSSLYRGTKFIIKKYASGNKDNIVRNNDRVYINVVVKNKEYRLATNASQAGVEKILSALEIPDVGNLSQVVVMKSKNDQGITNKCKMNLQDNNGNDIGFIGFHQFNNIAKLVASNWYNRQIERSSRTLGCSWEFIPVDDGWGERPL
Sequence of BoNT/A heavy-chain N-terminus (HCN) domain (P0DPI0 871-1092 limits assumed): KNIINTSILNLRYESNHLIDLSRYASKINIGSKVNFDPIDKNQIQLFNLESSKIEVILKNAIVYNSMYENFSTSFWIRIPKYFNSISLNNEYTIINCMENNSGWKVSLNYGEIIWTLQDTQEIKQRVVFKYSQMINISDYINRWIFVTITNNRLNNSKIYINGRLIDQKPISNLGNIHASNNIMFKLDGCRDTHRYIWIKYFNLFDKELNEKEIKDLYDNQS

Binder	binding result [1]	binding result [2]	binding result [3]
B1	no binding	no binding	
B2	no binding		no binding
B3		no binding	no binding

— US20110059079A1 (XOMA TECHNOLOGY, published 2011)
